This series concerns the target T1, EpCAM (UniProt P16422 P16422:24-265).
T1 sequence: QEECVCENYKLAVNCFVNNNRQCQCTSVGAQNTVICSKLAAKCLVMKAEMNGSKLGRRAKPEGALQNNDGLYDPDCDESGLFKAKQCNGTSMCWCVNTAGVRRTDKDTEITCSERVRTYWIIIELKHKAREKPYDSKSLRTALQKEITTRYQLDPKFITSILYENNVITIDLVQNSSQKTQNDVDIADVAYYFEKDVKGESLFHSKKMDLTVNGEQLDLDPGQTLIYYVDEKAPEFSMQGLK
The series is described as follows: stated only; no assay details.

Take CCCCCCGAATCACATGACTTGGGCGGGGGTCG (ssDNA, 6-T 3' tail as spacer for biotin (shown in figure)) [Aptamer 4]: the binding result was “binds”.

The values above are taken from patent publication US20200032265, “Oligonucleotide Probes and Uses Thereof” (CARIS SCIENCE, INC., published 2020).
